Data reported in patent US20220259324A1 (MINERVA BIOTECHNOLOGIES, published 2022).
Substitutions are numbered along the chain they refer to. Each block holds one binder with its values, some of them ahead of it.

Tests used:
[1] = molecular target: T1, Human NME7-AB, also known as NME7AB (recombinant, devoid of the DM10 domain) (human, UniProt Q9Y5B8 92-376); assay: ELISA, plate coated with recombinant NME7-AB (FIG. 24)
T1 construct: Recombinant, expressed in E. coli, purified over NTA-Ni and by size exclusion; monomer of about 33 kDa; also called NME-AB
T1 sequence: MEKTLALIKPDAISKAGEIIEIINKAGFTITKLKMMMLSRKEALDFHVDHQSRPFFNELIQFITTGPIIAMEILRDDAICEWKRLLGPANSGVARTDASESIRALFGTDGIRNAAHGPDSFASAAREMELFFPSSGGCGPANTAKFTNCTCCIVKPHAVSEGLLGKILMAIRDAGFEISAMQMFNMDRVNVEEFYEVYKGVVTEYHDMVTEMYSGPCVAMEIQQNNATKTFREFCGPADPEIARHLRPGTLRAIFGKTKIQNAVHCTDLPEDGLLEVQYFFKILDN

[2] = molecular target: T1, Human NME7-AB, also known as NME7AB …; assay: sandwich ELISA, HRP signal (FIG. 1)
Experimental: The PSMGFR peptide bearing a C-terminal Cysteine (PSMGFR-Cys) was covalently coupled to BSA using Imject Maleimide activated BSA kit (Thermo Fisher). PSMGFR-Cys coupled BSA was diluted to 10 ug/mL in 0.1M carbonate/bicarbonate buffer pH 9.6 and 50 uL was added to each well of a 96 well plate. After overnight incubation at 4° C., the plate was washed twice with PBS-T and a 3% BSA solution was added to block remaining binding site on the well. After 1h at RT the plate was washed twice with PBS-T and NME7, diluted in PBS-T+1% BSA, was added at different concentrations. After 1h at RT the plate was washed 3× with PBS-T and anti-NM23-H7 (B-9, Santa Cruz Biotechnology), diluted in PBS-T+1% BSA, was added at 1/500 dilution. […] After 1h at RT the plate was washed 3× with PBS-T and binding of NME7 was measured at 415 nm using ABTS solution (Pierce). […]
After 1h at RT the plate was washed 3× with PBS-T and His-Tagged PSMGFR peptide (PSMGFR-His) or biotinylated PSMGFR peptide (PSMGFR-biotin), diluted in PBS-T+1% BSA, was added at different concentration. […] After 1h at RT the plate was washed 3× with PBS-T and binding of PSMGFR peptide to NME7 already bound to another PSMGFR peptide (which could not signal by anti-His antibody or by streptavidin) coupled BSA was measured at 415 nm using a ABTS solution (Pierce).

binding result [1]: binds
B1: Monoclonal Antibody 8F9A5A1 (antibody, V domains shown)
VH: IQLVQSGPELKKPGETVKISCKASGYTFTNYGMNWVKQAPGKGLKWMGWINTYTGEPTYVDDFKGRFAFSLETSATTAYLQINNLKNEDTSTYFCARLRGIRPGPLAYWGQGTLVTVSA
VL: EILLTQSPAIIAASPGEKVTITCSASSSVSYMNWYQQKPGSSPKIWIYGISNLASGVPARFSGSGSGTSFSFTINSMEAEDVATYYCQQRSSYPPTFGGGTKLEIKR
notes: Mouse monoclonal antibody

binding result [2]: binds
B2: PSMGFR peptide (MUC1* extra cellular domain peptide) (peptide)
peptide: GTINVHDVETQFNQYKTEAASRYNLTISDVSVSDVPFPFSAQSGA
notes: Synthetic peptide immobilized on ELISA plates; also called MUC1* peptide; FLR

binding result [1]: binds
B3: Monoclonal antibody 8F9A4A3 (antibody, V domains shown)
VH: VQLQQSGPELVKPGASVKISCKTSGNTFTEYTMHWVKQSHGKSLEWIGGFNPNNGVTNYNQKFKGKATLTVDKSSSTAYMELRSLTSEDSAVYYCARRYYHSLYVFYFDYWGQGTTLTVSS
VL: ETTVTQSPASLSMAIGEKVTIRCITSTDIDDDMNWYQQKPGEPPKLLISEGNTLRPGVPSRFSSSGYGTDFVFTIENMLSEDVADYYCLQSDNLPLTFGSGTKLEIKR
notes: Mouse monoclonal antibody

binding result [1]: binds
B4: Monoclonal Antibody 5F3A5D4 (antibody, V domains shown)
VH: B3 VH with E9D, A15T, L103T, Y110S
VL: DIQMTQTTSSLSASLGDRVTISCSASQGISNYLNWFQQKPDGTIKLLIYYTSSLHSGVPSRFSGSGSGTDYSLTISNVEPEDIATYYCQQYSKLPYTFGGGTKLEIKR
notes: Mouse monoclonal antibody
